Results reported in patent US11746139B2, “IL-7Rαγc binding compounds” (MEDIKINE, INC., priority 2020, dated 2023).

Assays:
IL-7Rα = IL-7Rα (Homo sapiens, UniProt P16871); experiment: Competition binding ELISA with bn407::NA-HRP precomplex; conditions: bn407:NA-HRP 10 nM final; read-out: Competitive Binding ELISA bn407:NA-HRP (10 nMf) IC50 M
Rγc subunit = target: T1, Rγc subunit (Homo sapiens, UniProt P31785); experiment: Phage competitive binding assay characterizing the Rγc ligand binding site; conditions: for Competition with Phage Clone SEQ ID NO: 198 (Family 1A) for binding to the Rγc subunit: phage clone 198, immobilized Rγc ECD; for Competition with Phage Clone SEQ ID NO: 224 (Family 1B) for binding to the Rγc subunit: phage clone 224, immobilized Rγc ECD; for Competition with Phage Clone SEQ ID NO: 236 (Family 2) for binding to the Rγc subunit: phage clone 236, immobilized Rγc ECD; for Competition with Phage Clone SEQ ID NO: 248 (Family 3) for binding to the Rγc subunit: phage clone 248, immobilized Rγc ECD; for Competition with Phage Clone SEQ ID NO: 266 (Family 4) for binding to the Rγc subunit: phage clone 266, immobilized Rγc ECD; for Competition with Phage Clone SEQ ID NO: 930 (Family 5) for binding to the Rγc subunit: phage clone 930, immobilized Rγc ECD
T1 construct: purchased ACRObiosystems, Inc. ILG-H5256
T1 sequence (P31785 23-254): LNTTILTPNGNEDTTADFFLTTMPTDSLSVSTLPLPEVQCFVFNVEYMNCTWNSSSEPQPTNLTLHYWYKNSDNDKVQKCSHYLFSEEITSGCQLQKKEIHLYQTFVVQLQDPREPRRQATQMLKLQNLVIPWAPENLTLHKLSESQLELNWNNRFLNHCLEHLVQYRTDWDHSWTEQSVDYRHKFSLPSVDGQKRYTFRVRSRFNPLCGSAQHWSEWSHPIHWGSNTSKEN

IL-7Rα subunit = IL-7Rα subunit (Homo sapiens, UniProt P16871); experiment: Phage competitive binding assay characterizing the IL-7Rα ligand binding site
Sequence of IL-7Rα subunit (P16871 21-236): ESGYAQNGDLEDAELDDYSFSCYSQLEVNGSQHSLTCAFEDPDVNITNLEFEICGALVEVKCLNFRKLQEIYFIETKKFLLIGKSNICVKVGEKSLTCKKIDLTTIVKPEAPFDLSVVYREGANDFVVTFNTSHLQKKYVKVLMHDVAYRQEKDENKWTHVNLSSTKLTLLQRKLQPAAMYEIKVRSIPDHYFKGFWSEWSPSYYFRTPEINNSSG

Sequence of IL-7Rα (P16871 21-236): as above

| Compound | IC50 (IL-7Rα) [nM] | Competition with Phage Clone SEQ ID NO: 198 (Family 1A) for binding to the Rγc subunit (Rγc subunit) | Competition with Phage Clone SEQ ID NO: 224 (Family 1B) for binding to the Rγc subunit (Rγc subunit) | Competition with Phage Clone SEQ ID NO: 236 (Family 2) for binding to the Rγc subunit (Rγc subunit) | Competition with Phage Clone SEQ ID NO: 248 (Family 3) for binding to the Rγc subunit (Rγc subunit) | Competition with Phage Clone SEQ ID NO: 266 (Family 4) for binding to the Rγc subunit (Rγc subunit) | Competition with Phage Clone SEQ ID NO: 930 (Family 5) for binding to the Rγc subunit (Rγc subunit) | also measured |
| --- | --- | --- | --- | --- | --- | --- | --- | --- |
| CC[C@H](C)[C@H](N)C(=O)N1CCC[C@H]1C(=O)N[C@@H](Cc1c[nH]c2ccccc12)C(=O)N[C@H]1CSSC[C@@H](C(=O)N[C@@H](C)C(=O)N[C@@H](Cc2ccc(O)cc2)C(=O)N[C@@H](CC(C)C)C(=O)N[C@@H](CCCNC(=N)N)C(=O)N[C@@H](CCC(N)=O)C(=O)N[C@@H](CCSC)C(=O)NCC(=O)NCC(=O)O)NC(=O)[C@H](CCC(N)=O)NC(=O)[C@H](CC(C)C)NC(=O)CNC(=O)CNC(=O)[C@@H]2CCCN2C(=O)[C@H](CC(=O)O)NC(=O)[C@H](CC(C)C)NC(=O)[C@H]([C@@H](C)O)NC1=O [SEQ ID NO: 423, I P W C T L D P G G L Q C A Y L R Q M] | 664 |  |  |  |  |  |  |  |
| CC[C@H](C)[C@H](N)C(=O)N1CCC[C@H]1C(=O)N[C@@H](Cc1c[nH]c2ccccc12)C(=O)N[C@H]1CSSC[C@@H](C(=O)N[C@@H](C)C(=O)N[C@@H](C)C(=O)N[C@@H](CC(C)C)C(=O)N[C@@H](CCCNC(=N)N)C(=O)N[C@@H](CCC(N)=O)C(=O)N[C@@H](CCSC)C(=O)NCC(=O)NCC(=O)O)NC(=O)[C@H](CCC(N)=O)NC(=O)[C@H](CC(C)C)NC(=O)CNC(=O)CNC(=O)[C@@H]2CCCN2C(=O)[C@H](CC(=O)O)NC(=O)[C@H](CC(C)C)NC(=O)[C@H]([C@@H](C)O)NC1=O [SEQ ID NO: 421, I P W C T L D P G G L Q C A A L R Q M] | 7580 |  |  |  |  |  |  |  |
| CC[C@H](C)[C@H](N)C(=O)N1CCC[C@H]1C(=O)N[C@@H](Cc1c[nH]c2ccccc12)C(=O)N[C@H]1CSSC[C@@H](C(=O)N[C@@H](C)C(=O)N[C@@H](Cc2c[nH]c3ccccc23)C(=O)N[C@@H](C)C(=O)N[C@@H](CCCNC(=N)N)C(=O)N[C@@H](CCC(N)=O)C(=O)N[C@@H](CCSC)C(=O)NCC(=O)NCC(=O)O)NC(=O)[C@H](CCC(N)=O)NC(=O)[C@H](CC(C)C)NC(=O)CNC(=O)CNC(=O)[C@@H]2CCCN2C(=O)[C@H](CC(=O)O)NC(=O)[C@H](CC(C)C)NC(=O)[C@H]([C@@H](C)O)NC1=O [SEQ ID NO: 425, I P W C T L D P G G L Q C A W A R Q M] | 1850 |  |  |  |  |  |  |  |
| CC[C@H](C)[C@H](N)C(=O)N1CCC[C@H]1C(=O)N[C@@H](Cc1c[nH]c2ccccc12)C(=O)N[C@H]1CSSC[C@@H](C(=O)N[C@@H](C)C(=O)N[C@@H](Cc2ccccc2)C(=O)N[C@@H](CC(C)C)C(=O)N[C@@H](CCCNC(=N)N)C(=O)N[C@@H](CCC(N)=O)C(=O)N[C@@H](CCSC)C(=O)NCC(=O)NCC(=O)O)NC(=O)[C@H](CCC(N)=O)NC(=O)[C@H](CC(C)C)NC(=O)CNC(=O)CNC(=O)[C@@H]2CCCN2C(=O)[C@H](CC(=O)O)NC(=O)[C@H](CC(C)C)NC(=O)[C@H]([C@@H](C)O)NC1=O [SEQ ID NO: 422, I P W C T L D P G G L Q C A F L R Q M] | 903 |  |  |  |  |  |  |  |
| CC[C@H](C)[C@H](N)C(=O)N1CCC[C@H]1C(=O)N[C@@H](Cc1c[nH]c2ccccc12)C(=O)N[C@H]1CSSC[C@@H](C(=O)N[C@@H](C)C(=O)N[C@@H](Cc2c[nH]c3ccccc23)C(=O)N[C@@H](CC(C)C)C(=O)N[C@@H](CCCNC(=N)N)C(=O)N[C@@H](CCC(N)=O)C(=O)N[C@@H](C)C(=O)NCC(=O)NCC(=O)O)NC(=O)[C@H](CCC(N)=O)NC(=O)[C@H](CC(C)C)NC(=O)CNC(=O)CNC(=O)[C@@H]2CCCN2C(=O)[C@H](CC(=O)O)NC(=O)[C@H](CC(C)C)NC(=O)[C@H]([C@@H](C)O)NC1=O [SEQ ID NO: 432, I P W C T L D P G G L Q C A W L R Q A] | 942 |  |  |  |  |  |  |  |
| R T C T E W E N V V L C W V [SEQ ID NO: 202] |  | +^1 (Rγc ligand competes with phage binding.) | + (Rγc ligand competes with phage binding.) | + (Rγc ligand competes with phage binding.) | + (Rγc ligand competes with phage binding.) | + (Rγc ligand competes with phage binding.) | − |  |
| M C W L E W G E W V G S C L [SEQ ID NO: 236] |  | + (Rγc ligand competes with phage binding.) | + (Rγc ligand competes with phage binding.) | + (Rγc ligand competes with phage binding.) | + (Rγc ligand competes with phage binding.) | + (Rγc ligand competes with phage binding.) | − |  |
| CC[C@H](C)[C@H](N)C(=O)N1CCC[C@H]1C(=O)N[C@@H](Cc1c[nH]c2ccccc12)C(=O)N[C@H]1CSSC[C@@H](C(=O)N[C@@H](C)C(=O)N[C@@H](Cc2c[nH]cn2)C(=O)N[C@@H](CC(C)C)C(=O)N[C@@H](CCCNC(=N)N)C(=O)N[C@@H](CCC(N)=O)C(=O)N[C@@H](CCSC)C(=O)NCC(=O)NCC(=O)O)NC(=O)[C@H](CCC(N)=O)NC(=O)[C@H](CC(C)C)NC(=O)CNC(=O)CNC(=O)[C@@H]2CCCN2C(=O)[C@H](CC(=O)O)NC(=O)[C@H](CC(C)C)NC(=O)[C@H]([C@@H](C)O)NC1=O [SEQ ID NO: 424, I P W C T L D P G G L Q C A H L R Q M] | 1520 |  |  |  |  |  |  |  |
| CC[C@H](C)[C@H](N)C(=O)N1CCC[C@H]1C(=O)N[C@@H](Cc1c[nH]c2ccccc12)C(=O)N[C@H]1CSSC[C@@H](C(=O)N[C@@H](C)C(=O)N[C@@H](Cc2c[nH]c3ccccc23)C(=O)N[C@@H](CC(C)C)C(=O)N[C@@H](C)C(=O)N[C@@H](C)C(=O)N[C@@H](C)C(=O)NCC(=O)NCC(=O)O)NC(=O)[C@H](CCC(N)=O)NC(=O)[C@H](CC(C)C)NC(=O)CNC(=O)CNC(=O)[C@@H]2CCCN2C(=O)[C@H](CC(=O)O)NC(=O)[C@H](CC(C)C)NC(=O)[C@H]([C@@H](C)O)NC1=O [SEQ ID NO: 434, I P W C T L D P G G L Q C A W L A A A] | 602 |  |  |  |  |  |  |  |
| CC[C@H](C)[C@H](N)C(=O)N1CCC[C@H]1C(=O)N[C@@H](Cc1c[nH]c2ccccc12)C(=O)N[C@H]1CSSC[C@@H](C(=O)N[C@@H](C)C(=O)N[C@@H](Cc2c[nH]c3ccccc23)C(=O)N[C@H](C(=O)N[C@@H](CCCNC(=N)N)C(=O)N[C@@H](CCC(N)=O)C(=O)N[C@@H](CCSC)C(=O)NCC(=O)NCC(=O)O)C(C)C)NC(=O)[C@H](CCC(N)=O)NC(=O)[C@H](CC(C)C)NC(=O)CNC(=O)CNC(=O)[C@@H]2CCCN2C(=O)[C@H](CC(=O)O)NC(=O)[C@H](CC(C)C)NC(=O)[C@H]([C@@H](C)O)NC1=O [SEQ ID NO: 427, I P W C T L D P G G L Q C A W V R Q M] | 411 |  |  |  |  |  |  |  |
| V V C Q D W E G V E L C W Q [SEQ ID NO: 965] |  |  |  |  |  |  |  | Competition with Phage Clone SEQ ID NO: 5 (Family 1) for binding to the IL-7Rα subunit (IL-7Rα subunit; phage clone 5, immobilized IL-7Rα ECD): 0; Competition with Phage Clone SEQ ID NO: 43 (Family 3A) for binding to the IL-7Rα subunit (IL-7Rα subunit; phage clone 43, immobilized IL-7Rα ECD): 0; Competition with Phage Clone SEQ ID NO: 104 (Family 3B) for binding to the IL-7Rα subunit (IL-7Rα subunit; phage clone 104, immobilized IL-7Rα ECD): 0; Competition with Phage Clone SEQ ID NO: 313 (Family 2) for binding to the IL-7Rα subunit (IL-7Rα subunit; phage clone 313, immobilized IL-7Rα ECD): 0; Competition with Phage Clone SEQ ID NO: 965 (N/A) for binding to the IL-7Rα subunit (IL-7Rα subunit; phage clone 965, immobilized IL-7Rα ECD): 0 |
| D C S M W E J G V E L C W [SEQ ID NO: 224] |  | + (Rγc ligand competes with phage binding.) | + (Rγc ligand competes with phage binding.) | + (Rγc ligand competes with phage binding.) | + (Rγc ligand competes with phage binding.) | + (Rγc ligand competes with phage binding.) | − |  |
| Y D C R I A Q V G E L C D L [SEQ ID NO: 58, IL-2Rβ Ligand, reference compound] |  | − | − | − | − | − | − | Competition for binding to the binding site with the group of Rγc ligands (Rγc subunit): does not compete |
| S L L K C Y N A S T C A S V F [SEQ ID NO: 930] |  | −^2 | − | − | − | − | + (Rγc ligand competes with phage binding.) |  |
